From patent US20210147507A1, “METHODS TO AUGMENT OR ALTER SIGNAL TRANSDUCTION” (Bellicum Pharmaceuticals, Inc., priority 2017, published 2021)
Numbering of substitutions follows the chain as printed. Numbers in names are those of the source.

B1: G402A (protein)
chain: GFGDVGALESLRGNADLAYILSMEPCGHCLIINNVNFCRESGLRTRTGSNIDCEKLRRRFSSLHFMVEVKGDLTAKKMVLALLELARQDHGALDCCVVVILSHGCQASHLQFPGAVYGTDGCPVSVEKIVNIFNGTSCPSLGGKPKLFFIQACGGEQKDHGFEVASTSPEDESPGSNPEPDATPFQEGLRTFDQLDAISSLPTPSDIFVSYSTFPGFVSWRDPKSGSWYVETLDDIFEQWAHSEDLQSLLLRVANAVSVKGIYKQMPACFNFLRKKLFFKTSASRA
B2: G402I (protein)
chain: B1 chain with A268I
B3: S144D (protein)
chain: B1 chain with S10D, A268G
B4: S196D (protein)
chain: B1 chain with S62D, A268G
B5: T317S (protein)
chain: B1 chain with T183S, A268G
B6: C403P (protein)
chain: B1 chain with A268G, C269P
B7: S144A (protein)
chain: B1 chain with S10A, A268G
B8: G402Y (protein)
chain: B1 chain with A268Y
B9: G402Q (protein)
chain: B1 chain with A268Q
B10: 402GCFNF^406QPTFT (Casp-8) (protein, UniProt P55211 1-416, looked up, variant G402Q C403P F404T N405F F406T)
chain: MDEADRRLLRRCRLRLVEELQVDQLWDALLSRELFRPHMIEDIQRAGSGSRRDQARQLIIDLETRGSQALPLFISCLEDTGQDMLASFLRTNRQAAKLSKPTLENLTPVVLRPEIRKPEVLRPETPRPVDIGSGGFGDVGALESLRGNADLAYILSMEPCGHCLIINNVNFCRESGLRTRTGSNIDCEKLRRRFSSLHFMVEVKGDLTAKKMVLALLELAQQDHGALDCCVVVILSHGCQASHLQFPGAVYGTDGCPVSVEKIVNIFNGTSCPSLGGKPKLFFIQACGGEQKDHGFEVASTSPEDESPGSNPEPDATPFQEGLRTFDQLDAISSLPTPSDIFVSYSTFPGFVSWRDPKSGSWYVETLDDIFEQWAHSEDLQSLLLRVANAVSVKGIYKQMPQPTFTLRKKLFFKTS

Assays:
[1] = biological target: wt FRB (K2095 T2098 W2101) (Homo sapiens, UniProt P42345+P62942); settings: cited from earlier work
Chain of wt FRB (K2095 T2098 W2101) (P42345 2012-2144 limits assumed): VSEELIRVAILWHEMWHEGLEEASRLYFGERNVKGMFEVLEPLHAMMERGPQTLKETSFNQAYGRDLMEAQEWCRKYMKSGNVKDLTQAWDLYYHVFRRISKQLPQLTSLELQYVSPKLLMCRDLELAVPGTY
Chain of wt FRB (K2095 T2098 W2101) (P62942 2-108 limits assumed): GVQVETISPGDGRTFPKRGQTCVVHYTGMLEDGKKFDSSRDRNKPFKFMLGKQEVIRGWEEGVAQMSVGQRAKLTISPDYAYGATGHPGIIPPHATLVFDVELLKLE

[2] = biological target: FRB-PLF (Homo sapiens, UniProt P42345+P62942, K2095P/T2098L/W2101F); settings: cited from earlier work
Chain of FRB-PLF (P42345 2012-2144 K2095P/T2098L/W2101F limits assumed): as the sequence (P42345 2012-2144 limits assumed) above, with K84P, T87L, W90F counted along it
Chain of FRB-PLF (P62942 2-108 limits assumed): as the sequence (P62942 2-108 limits assumed) above

[3] = biological target: FRB-KTF (Homo sapiens, UniProt P42345+P62942, W2101F); settings: cited from earlier work
Chain of FRB-KTF (P42345 2012-2144 W2101F): as the sequence (P42345 2012-2144 limits assumed) above, with W90F counted along it
Chain of FRB-KTF (P62942 2-108): as the sequence (P62942 2-108 limits assumed) above

[4] = tested on: chimeric Caspase-9 polypeptide; assay: Caspase-9 mutant classes and basal activity (Table 5); type: cell-based; settings: Caspase-9 mutant class; for Basal Activity: basal (ligand-independent) signaling compared with unmodified chimeric Caspase-9
Chain of chimeric Caspase-9 polypeptide (P62942 2-108 F37V limits assumed): as the sequence (P62942 2-108 limits assumed) above, with F36V counted along it

Molecule	Catalytic activity (class 'Catalytically dead') [4]	Basal Activity [4]	also measured
CO[C@@H]1C[C@H](C[C@@H](C)[C@@H]2CC(=O)[C@H](C)/C=C(\C)[C@@H](O)[C@@H](OC)C(=O)[C@H](C)C[C@H](C)/C=C/C=C/C=C(\C)[C@H](OC(C)C)C[C@@H]3CC[C@@H](C)[C@@](O)(O3)C(=O)C(=O)N3CCCC[C@H]3C(=O)O2)CC[C@H]1O [R-Isopropoxyrapamycin]	–	–	EC50 [1]: ~300 nM; EC50 [2]: ~8.5 nM
S-Butanesulfonamidorap [AP23050]	–	–	EC50 [1]: ~2.7 nM; EC50 [3]: > 200 nM
B1	dead	–	–
B2	dead	–	–
B3	–	Decreased	–
B4	–	Decreased	–
B5	–	Decreased	–
B6	dead	–	–
B7	–	Decreased	–
B8	dead	–	–
B9	dead	–	–
B10	dead	–	–
